Source: patent US20140314775A1

Biological target: human recombinant adrenomedullin receptor (CRLR+RAMP3) (Homo sapiens)

EC50 (read off the curve): 1 nM
Substance: human Adrenomedullin (hADM 1-52) (peptide)
